{"source": "patent US7786071B2", "about": "(priority 2003, dated 2010)", "key": {"[1]": {"type": "biochemical", "settings": "pH 8"}, "[2]": {"type": "biochemical", "settings": "pH 8", "remark": "listed apart in the source"}, "[3]": {"type": "biochemical", "settings": "read-out: 2-Naphthyl acetate KM"}, "[4]": {"type": "biochemical", "settings": "read-out: Dihydrocoumarin KM"}, "[5]": {"type": "biochemical", "settings": "read-out: KM for L-Hcy hydrolysis"}, "[6]": {"type": "biochemical"}, "[7]": {"settings": "read-out: KM(PheAc); cited from earlier work"}, "[8]": {"settings": "read-out: KM(Paraoxon); cited from earlier work"}, "[9]": {"settings": "read-out: KM for L-HcyT hydrolysis; cited from earlier work"}, "[10]": {"settings": "read-out: Kd for the first (higher affinity) calcium; cited from earlier work"}}, "note": "Like-named read-outs stand apart in the source and are kept apart here."}
{"molecule": "G3H8: third-round rPON1 variant, unmodified 355 aa protein without tags; SEQ ID NO: 29 (DNA), 61 (protein) (protein, In vitro evolved PON variant G3H8) MAKLTAPTLLGLGLALFDRQKSSFQTRFNVHREVTPVELPNCNLVKGIDNGSEDLEILPNGLAFISSGLKYPGIMSFDPDKSGKILLMDLNEEDPVVLELGITGSTFDLSSFNPHGISTFTDEDNTVYLLVVNHPDSSSTVEVFKFQEKERSLLHLKTIRHKLLPSVNDIVAVGPESFYATNDHYFADPYLKSWEMHLGLAWSFVTYYSPNDVRVVAEGFDFANGINISPDGKYVYIAELLAHKIHVYEKHANWTLTPLKSLDFNTLVDNISVDPVTGDLWVGCHPNGMRIFYYDPENPPGSEVLRIQDILSKEPKVTVVYAENGTVLQGSTVAAVYKGKLLIGTVFHKALYCDL", "values": [{"measurement": "kcat (PheAc)", "setting": "[1]", "value": 1018, "unit": "s⁻¹"}, {"measurement": "Km", "setting": "[1]; read-out: KM(PheAc)", "value": 320, "unit": "µM"}, {"measurement": "kcat(Paraoxon)", "setting": "[2]", "value": 1.2, "unit": "s⁻¹"}, {"measurement": "Km", "setting": "[2]; read-out: KM(Paraoxon)", "value": 88, "unit": "µM"}, {"measurement": "Km", "setting": "[3]", "value": 110, "unit": "µM"}, {"measurement": "Km", "setting": "[4]", "value": 76, "unit": "µM"}, {"measurement": "Km", "setting": "[5]", "value": "~19000", "unit": "µM"}]}
{"molecule": "7HY: G3C9-derived PON1 variant, mutations F292V, Y293D, I109M; SEQ ID NO: 74, 75 (protein, In vitro evolved PON variant 7HY) MAKLTALTLLGLGLALFDGQKSSFQTRFNVHREVTPVELPNCNLVKGVDNGSEDLEILPNGLAFISSGLKYPGIMSFDPDKSGKILLMDLNEEDPVVLELGITGNTLDMSSFNPHGISTFTDEDNTVYLLVVNHPDSSSTVEVFKFQEEEKSLLHLKTIRHKLLPSVNDIVAVGPEHFYATNDHYFADPYLKSWEMHLGLAWSFVTYYSPNDVRVVAEGFDFANGINISPDGKYVYIAELLAHKIHVYEKHANWTLTPLKSLDFDTLVDNISVDPVTGDLWVGCHPNGMRIVDYDPKNPPGSEVLRIQDILSEEPKVTVVYAENGTVLQGSTVAAVYKGKLLIGTVFHKALYCEL", "values": [{"measurement": "shift in substrate selectivity", "setting": "[6]", "value": "up to 4,600 fold"}]}
{"molecule": "hPON1: wild-type human PON1; kinetic values for enzyme purified from sera; SEQ ID NO: 24, 36 (protein, listed as Homo sapiens) MAKLIALTLLGMGLALFRNHQSSYQTRLNALREVQPVELPNCNLVKGIETGSEDLEILPNGLAFISSGLKYPGIKSFNPNSPGKILLMDLNEEDPTVLELGITGSKFDVSSFNPHGISTFTDEDNAMYLLVVNHPDAKSTVELFKFQEEEKSLLHLKTIRHKLLPNLNDIVAVGPEHFYGTNDHYFLDPYLQSWEMYLGLAWSYVVYYSPSEVRVVAEGFDFANGINISPDGKYVYIAELLAHKIHVYEKHANWTLTPLKSLDFNTLVDNISVDPETGDLWVGCHPNGMKIFFYDSENPPASEVLRIQNILTEEPKVTQVYAENGTVLQGSTVASVYKGKLLIGTVFHKALYCEL", "values": [{"measurement": "Km", "setting": "[7]", "value": 420, "unit": "µM"}, {"measurement": "Km", "setting": "[8]", "value": 540, "unit": "µM"}, {"measurement": "Km", "setting": "[9]", "value": 23000, "unit": "µM"}, {"measurement": "Kd", "setting": "[10]", "value": 0.36, "unit": "µM"}]}
